# Assay results: patent US20210062131A1, “In Vitro, Multi-Niche, Bone Marrow-on-a-Chip” (Georgia Tech Research Corporation, priority 2018, published 2021)
# B1: G-CSF: mobilizing agent added to the BMOC device (protein, UniProt P09919 31-207, looked up)
# Granulocyte …: TPLGPASSLPQSFLLKCLEQVRKIQGDGAALQEKLVSECATYKLCHPEELVLLGHSLGIPWAPLSSCPSQALQLAGCLSQLHSGLFLYQGLLQALEGISPELGPTLDTLQLDVADFATTIWQQMEELGMAPALQPTQGAMPAFASAFQRRAGGVLVASHLQSFLEVSYRVLRHLAQP
# System: CXCL12
# Test: CXCL12 expression by immunohistochemistry in BMOC device after adding mobilizing agents
# Type: cell-based, human
# Conditions: BMOC with OBs, HUVECs and MSCs; G-CSF and AMD3100 added on day 5, cells fixed and stained on day 6; IHC
# Method: Cells were fixed and stained on day 6. CXCL12 expression was measured by immunohistochemistry (IHC); n=2-3 devices (× 5 ROI each), mean±SD.
# Staining procedure for devices was adapted from previously reported approaches. Devices were washed with PBS, fixed with 4% formaldehyde (ThermoFisher), and permeabilized with 0.1% Triton X-100. Prior to staining, cells were blocked with 5% BSA, 3% goat serum in PBS. Primary antibodies were diluted (1:100) in blocking buffer and devices were stained overnight at 4° C. Devices were then washed with 0.1% BSA in PBS and stained with secondary antibodies (1:200) diluted in wash buffer for 3 hours at RT. Devices were washed with wash buffer and then stained with DAPI (1:1000) and Phalloidin AF647 (1:40).
molecule,measurement,value
B1,expression of cytokine CXCL12,decrease expression of cytokine CXCL12
